The text below walks through data of paper PMC5984536.

The assay deals with actin filaments (F-actin) assembled in vitro from DyLight-labeled actin and biotinylated actin (UniProt P68135). Kind of assay: TIRF microscopy of cofilin-EGFP on single actin filaments.

The substance “cofilin-EGFP (recombinant mouse cofilin tagged on its C terminus) (from UniProt P18760 1-166) (natural protein)” had an average density of cofilin on stuck F-actin against that on mDia1(−) F-actin of 35 % lower.
